Data: US20160145343A1

How the values were obtained:
[1] = biological target: MUC1 on MUC1+ human cancer cell lines and tumor tissue (abnormal, e.g. hypoglycosylated, tumor MUC1) (human) (UniProt P15941); assay: flow cytometry, SKBR-3 cells
[2] = biological target: MUC1 on MUC1+ human cancer cell lines and tumor tissue (abnormal, e.g. hypoglycosylated, tumor MUC1) (human) (UniProt P15941); assay: flow cytometry, HPAF cells
[3] = biological target: MUC1 on MUC1+ human cancer cell lines and tumor tissue (abnormal, e.g. hypoglycosylated, tumor MUC1) (human) (UniProt P15941); assay: flow cytometry, PANC-1 cells
[4] = biological target: MUC1 on MUC1+ human cancer cell lines and tumor tissue (abnormal, e.g. hypoglycosylated, tumor MUC1) (human) (UniProt P15941); assay: flow cytometry, MS+MUC1 cells
[5] = biological target: MUC1 on MUC1+ human cancer cell lines and tumor tissue (abnormal, e.g. hypoglycosylated, tumor MUC1) (human) (UniProt P15941); assay: immunohistochemistry, colon tissue microarray, malignant samples
[6] = biological target: MUC1 on MUC1+ human cancer cell lines and tumor tissue (abnormal, e.g. hypoglycosylated, tumor MUC1) (human) (UniProt P15941); assay: immunohistochemistry, colon tissue microarray, benign samples
[7] = biological target: MUC1 on MUC1+ human cancer cell lines and tumor tissue (abnormal, e.g. hypoglycosylated, tumor MUC1) (human) (UniProt P15941); assay: flow cytometry, MCF-7 cells
[8] = biological target: MUC1 on MUC1+ human cancer cell lines and tumor tissue (abnormal, e.g. hypoglycosylated, tumor MUC1) (human) (UniProt P15941); assay: flow cytometry, BT20 cells
[9] = biological target: MUC1 on MUC1+ human cancer cell lines and tumor tissue (abnormal, e.g. hypoglycosylated, tumor MUC1) (human) (UniProt P15941); assay: immunohistochemistry, colon tissue microarray
[10] = biological target: MUC1 on MUC1+ human cancer cell lines and tumor tissue (abnormal, e.g. hypoglycosylated, tumor MUC1) (human) (UniProt P15941); assay: flow cytometry, PANC-1 cells, secondary antibody only
[11] = biological target: MUC1 on MUC1+ human cancer cell lines and tumor tissue (abnormal, e.g. hypoglycosylated, tumor MUC1) (human) (UniProt P15941); assay: flow cytometry, SKBR-3 cells, secondary antibody only
[12] = biological target: MUC1 on MUC1+ human cancer cell lines and tumor tissue (abnormal, e.g. hypoglycosylated, tumor MUC1) (human) (UniProt P15941); assay: flow cytometry, MS+MUC1 cells, secondary antibody only
[13] = biological target: MUC1 on MUC1+ human cancer cell lines and tumor tissue (abnormal, e.g. hypoglycosylated, tumor MUC1) (human) (UniProt P15941); assay: flow cytometry, HPAF cells, secondary antibody only
[14] = biological target: MUC1 on MUC1+ human cancer cell lines and tumor tissue (abnormal, e.g. hypoglycosylated, tumor MUC1) (human) (UniProt P15941); assay: flow cytometry, MCF-7 cells, secondary antibody only
[15] = biological target: MUC1 on MUC1+ human cancer cell lines and tumor tissue (abnormal, e.g. hypoglycosylated, tumor MUC1) (human) (UniProt P15941); assay: flow cytometry, BT20 cells, secondary antibody only

Substance | percentage of APC+ stained cells [1] [%] | percentage of APC+ stained cells [2] [%] | percentage of APC+ stained cells [3] [%] | percentage of APC+ stained cells [4] [%] | MUC1+ samples stained (of 114 MUC1+ malignant samples) [5] | MUC1+ samples stained (of 3 MUC1+ benign samples) [6] | percentage of APC+ stained cells [7] [%] | percentage of APC+ stained cells [8] [%] | samples MUC1+ by staining (of 6 benign samples) [9] | samples MUC1+ by staining (of 138 malignant samples) [9] | percentage of APC+ stained cells [10] [%] | percentage of APC+ stained cells [11] [%] | percentage of APC+ stained cells [12] [%] | percentage of APC+ stained cells [13] [%] | percentage of APC+ stained cells [14] [%] | percentage of APC+ stained cells [15] [%]
VU-4H5 (Abnova), mouse anti-MUC1 antibody | 24.1 | 6.99 | 54.3 | 24.6 | 49 | 2 | 27.8 | 32.9 | – | – | – | – | – | – | – | –
VU-3C6 (Abcam), mouse anti-MUC1 antibody | 99.9 | 98.4 | 98.8 | 99.4 | – | – | 98.7 | 92.3 | – | – | – | – | – | – | – | –
HMPV (BD Biosciences), mouse anti-MUC1 antibody | – | – | – | – | 114 | 3 | – | – | 3 | 114 | – | – | – | – | – | –
M-2nd. (APC-labeled secondary antibody only control for the mouse antibodies) | – | – | – | – | – | – | – | – | – | – | 3.45 | 1.67 | 0.46 | 0.77 | 1.39 | 1.74
Hu-2nd. (APC-labeled secondary antibody only control for the human antibodies) | – | – | – | – | – | – | – | – | – | – | 2.01 | 0.96 | 0.55 | 1.02 | 1.73 | 1.17
